Measurements taken from US6482410B1, “Cytotactin derivatives that stimulate attachment and neurite outgrowth, and methods of making same” (The Scripps Research Institute, priority 1994, dated 2002).
Entries after “also recorded” stand apart in the source; their conditions may differ.

B1: CTfn6: CT:GST fusion protein, fibronectin type III repeat VI, residues 1318-1398 of SEQ ID NO 4 (protein)
chain: VVGSPKGISFSDITENSARVSWTPPRSRVDSYRVSYVPITGGTPNVVTVDGSKTRTKLVKLVPGVDYNVNIISVKGFEESE
modifications: left off: a dimerising Fc or GST
B2: CTfg: CT:GST fusion protein, entire fibrinogen domain, residues 1570-1810 of SEQ ID NO 4 (protein)
chain: SMRSKMIQTVFTTTGLLYPYPKDCSQALLNGEVTSGLYTIYLNGDRTQPLQVFCDMAEDGGGWIVFLRRQNGKEDFYRNWKNYVAGFGDPKDEFWIGLENLHKISSQGQYELRVDLRDRGETAYAVYDKFSVGDAKTRYRLRVDGYSGTAGDSMTYHNGRSFSTFDKDNDSAITNCALSYKGAFWYKNCHRVNLMGRYGDNNHSQGVNWFHWKGHEYSIQFAEMKLRPSSFRNLEGRRKRA
modifications: left off: a dimerising Fc or GST
B3: CTfn3: CT:GST fusion protein, fibronectin type III repeat III, residues 774-864 of SEQ ID NO 4 (protein)
chain: LDAPSQIEAKDVTDTTALITWSKPLAEIEGIELTYGPKDVPGDRTTIDLSEDENQYSIGNLRPHTEYEYEVTLISRRGDMESDPAKEVFVT
modifications: left off: a dimerising Fc or GST

Experiments:
[1] = tested on: chicken fibroblast cell line SL29; assay: Cell attachment assay, fibroblasts on protein-coated solid support; format: cell-based; settings: for SL29 fibroblast attachment to coated substrate (words): CT coated at 20 μg/ml, binding fragments at 0.75 μM, non-binding at three times that, 1 hour; for spreading of SL29 cells on substrate: coated at 0.75 μM
Experimental: In the cell attachment assays, a single cell suspension was allowed to settle for a fixed period of time onto a solid support that has been coated with the different CT-derived proteins to be tested for cell attachment (Friedlander, et al., J. Cell Biol. 107: 2329-2340 (1988)). After removing the unbound and loosely bound cells by washing, the attachment and morphology of those cells remaining on the dish were analyzed.
Solid supports, consisting of a circular array of CT or CT:GST fusion proteins bound to a dish, were prepared as follows for the cell attachment assay.
For the initial study, non tissue-culture treated polystyrene plates (Falcon 1008) were spotted with 2 μl of a 0.5 to 1.5 μM solution of CT in PBS for 30 minutes to coat a specific area on the dish with CT. CT was isolated from chicken brain or from fibroblast culture supernatant as described in Crossin, PNAS 88: 11403-11407 (1991) and Hoffman et al., J. Cell Biol. 106: 519-532 (1988). CT was placed in a circular array near the center of the dish and incubated at 37° C. for 30 minutes. After CT had adsorbed to the dish, the central portion of the dish was washed once with 250 μl of 20% (w/v) BSA in PBS. Non-specific binding sites on the dish were then blocked with 250 μl of 20% (w/v) BSA in PBS by incubation for 2 to 3 hours at room temperature.
For the subsequent study with the CT:GST fusion proteins, non tissue-culture treated polystyrene plates (Falcon 1008) were spotted with 2 μl of a 0.5 to 1.5 μM solution of CT:GST fusion protein in PBS as prepared in Example 5.A.2 or GST in PBS for 30 minutes to coat a specific area on the dish with CT:GST fusion protein or GST. The proteins to be tested were placed in a circular array near the center of the dish and incubated at 37° C. for 30 minutes. After the proteins adsorbed to the dish, the central portion of the dish was washed once with 250 μl of 20% (w/v) BSA in PBS. Non-specific binding sites on the dish were then blocked with 250 μl of 20% (w/v) BSA in PBS by incubation for 2 to 3 hours at room temperature.
The chicken fibroblast cell line SL29 (ATCC CRL 1590) was grown to confluence in Dulbecco's Minimum Essential Medium (DMEM; Gibco-BRL, Gaithersburg, Mass.) with 10% (v/v) fetal calf serum (FCS; Gibco-BRL) with penicillin and streptomycin. The cells were passaged the night prior to the assay and seeded at a density of 1:2. Cells were harvested in calcium, magnesium-free Hank's balanced salt solution (CMF-HBSS, Gibco-BRL) with 20 mM Hepes buffer and 5 mM EDTA. Harvested cells were washed in attachment buffer (CMF-HBSS with 10 mM Hepes, 1 mM CaCl2, 1 mM MgCl2, 0.1 mM MnCl2, and 2% (w/v) bovine serum albumin (BSA)) three times. The number of cells was quantitated by counting the cells in a hemocytometer. The cells were resuspended in attachment buffer to a density of 6×10^5 cells/ml.
Chicken fibroblasts, DRG, and solid supports (dishes) coated with CT for use in the cell attachment assays were prepared as described in Examples 5.A.2-4, respectively. The chicken fibroblasts and DRG at a density of 6×10^5 cells/ml were added to the prepared dishes and incubated at 37° C. in 5% CO2 for 1 hour. The dishes were then washed three times in PBS with gentle swirling to remove unattached cells, fixed in 1% glutaraldehyde in PBS, and viewed by phase contrast microscopy. The number of bound cells was determined using a 10× objective with an eyepiece reticle. The number of cells was determined in four fields for each fusion protein dot as the number of cells bound per […]. CT was tested in triplicate. The number of cells bound for CT was expressed as the average of the twelve measurements±standard deviation […].
CT, coated at a concentration of 20 μg/ml, was used as a solid support for SL29 fibroblast attachment. […] Fragments of CT were generated using the pGEX fusion protein system, as described in Example 1. The cell attachment assay was performed essentially as described above for the cell attachment assay to intact CT. […]

DRG cells = assay: DRG neurite outgrowth, 40 hour culture, morphology; format: cell-based, chicken; settings: DRG cells cultured 40 hours
Experimental: In order to assess the effect to the cell binding regions of CT/TN on the outgrowth of neurites from PNS neurons, DRG cells were cultured for 40 hours on popylysine, CTfn3, CTfn6, CTfg, and CTfn3-CTfn6 mixed substrates. The cultures were then fixed and the cell and neurite morphology was analyzed by phase contrast microscopy. The cells were plated on plastic substrates coated with the same concentrations of CTITN and fusion proteins used in the attachment assay.

[2] = tested on: neurons from chick forebrain; assay: CNS neurite outgrowth, forebrain neurons, 7 hours; format: cell-based; settings: 7 hour growth period; for % Sprouting: Table 4, FB (forebrain) neurons
Experimental: Dorsal root ganglia (DRG) cells or forebrain neurons were prepared for the cell attachment assays as follows. DRG from day 6 chicken embryos or forebrains from day 7 chicken embryos were dissected into HBSS. The tissue was pelleted by centrifugation and resuspended in CMF-HBSS and incubated at 37° C. for 10 minutes. The tissue was pelleted again and resuspended in CMF-HBSS containing 0.08% trypsin and allowed to trypsinize for 20 minutes at 37° C. An equal volume of DMEM/F12, 10% FCS, 20 ng/ml nerve growth factor (NGF) (for DRG cells only), 10 μg/ml gentamycin (10% medium) was added, and the tissue was pelleted and resuspended in 2 ml of the 10% medium. The cells were triturated with a fire-polished Pasteur pipette for 15 strokes, and the cells were washed and resuspended in 10 ml of 10% medium. DRG cells were plated in a 10 cm tissue culture dish and incubated for 1 hour at 37° C. in 5% CO2, to allow for attachment of contaminating fibroblasts.
After replating, the cells were harvested, pelleted and washed three times in DMEM/F12, 1% fetal calf serum (FCS), 20 ng/ml NGF (for DRG cells only), 10 μg/ml gentamycin (1% medium), and the number of cells determined using a hemocytometer. The DRG were resuspended to a density of 6×10^5 cells/ml in attachment buffer. The neurons were resuspended to a density of 2×10^4 cells/ml in 1% medium and added to substrates and placed at 37° C., 5% CO2 for 15 hours.
After the growth period, the dishes were gently rinsed with PBS to remove unbound cells, fixed with 1% glutaraldehyde, and viewed by phase contrast microscopy. Ten to forty cells were analyzed for each substrate. Cells were judged as neurite-bearing if the length of the processes was greater than one cell diameter. All cells with neurites were photographed with a 20× objective and total neurite length per neurite-bearing cell was derived from the photographic prints. Percentage of neuronal sprouting was calculated from at least six experiments. Neurite length was calculated from at least three experiments.
To investigate whether CNS neurons could also extend neurites on CT/TN and CT/TN fragments, neurons from chick forebrain were plated at low density on CT/TN, CT/TN fragments and polylysine, and analyzed for neurite outgrowth after a 7 hour growth period (a time period found to be optimal for stable neurite outgrowth from these cells). The lengths of neurites on substrates that supported sprouting were essentially the same for the forebrain neurons and were therefore not quantitated further.

| Molecule | SL29 fibroblast attachment to coated substrate (words) [1] | SL29 fibroblast attachment to coated substrate (words) ([1]; listed as Ctfn6) | SL29 fibroblast attachment to coated substrate (words) ([1]; listed as sixth repeat) | spreading of SL29 cells on substrate [1] | neurite and cell morphology after 40 hours (DRG cells) | forebrain cell attachment [2] | forebrain neuron sprouting versus polylysine [2] | % Sprouting [2] [%] |
| --- | --- | --- | --- | --- | --- | --- | --- | --- |
| B1 | robust SL29 cell attachment was supported; also recorded: supports both fibroblast and neuronal cell attachment | support fibroblast and neuronal cell attachment | fibroblast attachment activity was localized to the sixth repeat | little or no spreading | moderately long neurites | promotes attachment | significant increase | 8.7 ± 1.9 |
| B2 | robust SL29 cell attachment was supported; also recorded: readily attached; also recorded: attached well |  |  | little or no spreading | basal level of outgrowth |  | not significantly different | 2.2 ± 0.5 |
| B3 | robust SL29 cell attachment was supported; also recorded: readily attached; also recorded: attached well |  |  | exhibited cell spreading; also recorded: spreading of cells was observed | long fasciculated processes | did not support forebrain cell attachment | no effect on neurite outgrowth | 0 |
